Laboratory results published in article PMC2582960, “A Structural Model of the Staphylococcus aureus ClfA–Fibrinogen Interaction Opens New Avenues for the Design of Anti-Staphylococcal Therapeutics” (PLoS Pathogens, 2008).
Where two headings read alike, the source gives them in different places. Where no end group is shown, it is not given here.

Assays:
[1] = biological target: T1, ClfA229–545 (Staphylococcus aureus, UniProt Q53653); assay: Isothermal titration calorimetry of ClfA229–545 with soluble Fg peptides; design: a smaller ClfA construct (229–545) predicted to be composed only of the N2 N3 domains; His tag (pQE-30 vector) (N); made in house; host or cells: Escherichia coli XL-1 Blue; conditions: ITC, 30 µM ClfA in cell, 500–600 µM peptide in syringe, HBS pH 7.4, 30°C, single binding site model; read-out: Kd of peptide binding to ClfA229–545 in solution (ITC)
T1 sequence (Q53653 229-545): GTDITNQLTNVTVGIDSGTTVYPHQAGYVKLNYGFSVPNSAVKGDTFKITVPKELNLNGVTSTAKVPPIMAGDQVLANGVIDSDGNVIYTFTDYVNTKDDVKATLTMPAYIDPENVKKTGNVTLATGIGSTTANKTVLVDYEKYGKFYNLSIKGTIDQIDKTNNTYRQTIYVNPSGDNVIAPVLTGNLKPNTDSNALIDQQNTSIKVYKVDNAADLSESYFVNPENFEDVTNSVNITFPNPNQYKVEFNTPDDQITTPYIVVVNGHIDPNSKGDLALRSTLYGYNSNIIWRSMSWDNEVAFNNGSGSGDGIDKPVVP
Method: The interaction between ClfA proteins and soluble Fg peptides was analyzed by Isothermal titration calorimetry (ITC) using a VP-ITC microcalorimeter (MicroCal). The cell contained 30 µM ClfA and the syringe contained 500–600 µM peptide in HBS buffer (10 mM HEPES, 150 mM NaCl, pH 7.4). All samples were degassed for 5 min. The titration was performed at 30°C using a preliminary injection of 5 µl followed by 30 injections of 10 µl with an injection speed of 0.5 µl/sec. The stirring speed was 300 rpm. Data were fitted to a single binding site model and analyzed using Origin version 5 (MicroCal) software.

[2] = biological target: ClfA_(229–545) (clumping factor A, N2N3 domains) (Staphylococcus aureus strain Newman) (UniProt Q53653); assay: ITC
[3] = biological target: T1, ClfA229–545; assay: Solid-phase inhibition assay: Fg γ peptides inhibit ClfA binding to immobilized GST-Fg γ^1–17; design: a smaller ClfA construct (229–545) predicted to be composed only of the N2 N3 domains; His tag (pQE-30 vector) (N); made in house; host or cells: Escherichia coli XL-1 Blue; conditions: read-out: inhibition of ClfA binding to immobilized GST-Fg γ^1–17
Method: To identify specific residues in Fg that are important for binding to ClfA229–545, a panel of peptides (Fig. 1A) based on the Fg γ-chain sequence 395–411 (referred to as γ^1–17) were synthesized in which each position was sequentially substituted with an alanine residue (alanines 11 and 14 were changed to serines). These peptides were tested as inhibitors in solid-phase binding assays, using a peptide concentration giving about 50% inhibition by the wild-type peptide.
(§1) ClfA229–545 (100 nM) was pre-incubated with wild-type Fg γ^1–17 peptide (WT γ^1–17) or the P1 (G1A) to P17 (V17A) mutant peptide (50 µM) for 1 hr.
Immulon 4HBX Microtiter plates (Thermo) were coated with human Fg (1 µg/well) in HBS (10 mM HEPES, 100 mM NaCl, 3 mM EDTA, pH 7.4) over-night at 4°C. The wells were washed with HBS containing 0.05% (w/v) Tween-20 (HBST) and blocked with 5% (w/v) BSA in HBS for 1 h at 25°C. […] After incubation, the plates were washed 3 times with HBST. Anti-His antibodies (GE Healthcare) were added (1∶3000 in HBS) and the plates were incubated at 25°C for 1 h. […] The wells were washed 3 times with HBST and AP-conjugated polyclonal antibodies were detected by addition of p-nitrophenyl phosphate (Sigma) in 1 M diethanolamine (0.5 mM MgCl2, pH 9.8) and incubated at 25°C for 30–60 min. The plates were read at 405 nm in a ELISA plate reader (Thermomax, Molecular Devices). […]

[4] = biological target: GST-Fg γ^1–17 (residues 395–411 of the Fg γ-chain fused to a GST protein) (human) (UniProt P02679); assay: ELISA; human Fg or GST fusion protein coated (1 µg/well); His-tagged ClfA added in increasing concentrations in HBS (10 mM HEPES, 100 mM NaCl, 3 mM EDTA, pH 7.4), 25°C, 1 h; bound ClfA detected with anti-His antibodies; apparent Kd
[5] = biological target: GST-Fg γ^1–17 (residues 395–411 of the Fg γ-chain fused to a GST protein) (human) (UniProt P02679); assay: as above; remark: listed apart in the source
[6] = biological target: human fibrinogen (Fg), full length (human) (UniProt P02671); assay: as above
[7] = biological target: T1, ClfA229–545; conditions: read-out: Kd of ClfA229–545 binding to immobilized GST fusion protein; solid-phase assay, 1 µg GST fusion per well, increasing rClfA229–545, anti-His detection (Fig. 1C)
Method: as §1
Immulon 4HBX Microtiter plates (Thermo) were coated with human Fg (1 µg/well) in HBS (10 mM HEPES, 100 mM NaCl, 3 mM EDTA, pH 7.4) over-night at 4°C. The wells were washed with HBS containing 0.05% (w/v) Tween-20 (HBST) and blocked with 5% (w/v) BSA in HBS for 1 h at 25°C. […] After incubation, the plates were washed 3 times with HBST. Anti-His antibodies (GE Healthcare) were added (1∶3000 in HBS) and the plates were incubated at 25°C for 1 h. The wells were subsequently washed 3 times with HBST and incubated with goat anti-mouse-AP secondary antibodies (diluted 1∶3000 in HBS; Bio-Rad) at 25°C for 1 h. The wells were washed 3 times with HBST and AP-conjugated polyclonal antibodies were detected by addition of p-nitrophenyl phosphate (Sigma) in 1 M diethanolamine (0.5 mM MgCl2, pH 9.8) and incubated at 25°C for 30–60 min. The plates were read at 405 nm in a ELISA plate reader (Thermomax, Molecular Devices). For the inhibition assays, recombinant ClfA229–545 was pre-incubated with Fg γ peptides in HBS for 1 h at 37°C.

[8] = biological target: T2, ClfA_(229–545) (clumping factor A, N2N3 domains) (Staphylococcus aureus strain Newman, UniProt Q53653 229-545); assay: ITC
T2 chain: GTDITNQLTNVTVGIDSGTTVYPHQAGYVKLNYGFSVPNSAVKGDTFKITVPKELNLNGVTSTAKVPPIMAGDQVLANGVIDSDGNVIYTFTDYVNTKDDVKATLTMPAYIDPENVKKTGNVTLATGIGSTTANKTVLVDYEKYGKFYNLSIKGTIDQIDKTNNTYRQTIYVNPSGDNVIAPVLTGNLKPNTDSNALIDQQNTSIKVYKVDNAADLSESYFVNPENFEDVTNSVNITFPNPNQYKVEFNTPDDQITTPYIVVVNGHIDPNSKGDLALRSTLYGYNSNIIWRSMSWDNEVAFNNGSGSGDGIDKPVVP

Sequence of human fibrinogen (Fg), full length (human) (P02671 other isoform, or with tags, fused parts or gaps, chain 1 of 3): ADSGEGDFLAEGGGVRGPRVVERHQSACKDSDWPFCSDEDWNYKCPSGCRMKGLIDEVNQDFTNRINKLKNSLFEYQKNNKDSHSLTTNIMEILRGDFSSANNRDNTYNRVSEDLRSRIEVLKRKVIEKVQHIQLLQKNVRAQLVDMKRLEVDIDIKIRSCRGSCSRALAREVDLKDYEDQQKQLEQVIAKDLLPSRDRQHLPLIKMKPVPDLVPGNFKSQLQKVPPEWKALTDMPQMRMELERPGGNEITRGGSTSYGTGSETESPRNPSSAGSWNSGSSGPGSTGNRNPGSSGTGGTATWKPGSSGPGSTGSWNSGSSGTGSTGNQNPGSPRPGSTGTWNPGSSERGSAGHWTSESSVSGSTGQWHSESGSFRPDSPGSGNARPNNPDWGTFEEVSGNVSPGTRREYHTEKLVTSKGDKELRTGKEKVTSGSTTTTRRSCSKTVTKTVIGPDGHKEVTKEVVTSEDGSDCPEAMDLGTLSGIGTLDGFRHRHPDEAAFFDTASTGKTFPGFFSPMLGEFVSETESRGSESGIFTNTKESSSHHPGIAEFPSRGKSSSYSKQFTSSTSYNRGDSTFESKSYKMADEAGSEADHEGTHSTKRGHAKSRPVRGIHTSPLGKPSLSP
Sequence of human fibrinogen (Fg), full length (human) (P02675 31-491, chain 2 of 3, further chain): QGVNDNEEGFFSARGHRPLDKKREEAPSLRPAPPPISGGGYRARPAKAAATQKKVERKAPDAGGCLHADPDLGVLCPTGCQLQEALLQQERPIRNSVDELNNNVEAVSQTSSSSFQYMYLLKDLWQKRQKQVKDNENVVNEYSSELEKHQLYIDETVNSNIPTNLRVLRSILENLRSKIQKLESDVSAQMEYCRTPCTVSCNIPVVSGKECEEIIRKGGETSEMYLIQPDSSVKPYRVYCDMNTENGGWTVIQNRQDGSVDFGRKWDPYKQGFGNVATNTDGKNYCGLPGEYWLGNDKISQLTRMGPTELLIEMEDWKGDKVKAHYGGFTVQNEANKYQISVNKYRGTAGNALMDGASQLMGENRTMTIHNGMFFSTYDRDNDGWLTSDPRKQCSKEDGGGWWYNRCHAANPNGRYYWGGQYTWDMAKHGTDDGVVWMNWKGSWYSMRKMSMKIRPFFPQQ
Sequence of human fibrinogen (Fg), full length (human) (P02679 other isoform, or with tags, fused parts or gaps, chain 3 of 3, further chain): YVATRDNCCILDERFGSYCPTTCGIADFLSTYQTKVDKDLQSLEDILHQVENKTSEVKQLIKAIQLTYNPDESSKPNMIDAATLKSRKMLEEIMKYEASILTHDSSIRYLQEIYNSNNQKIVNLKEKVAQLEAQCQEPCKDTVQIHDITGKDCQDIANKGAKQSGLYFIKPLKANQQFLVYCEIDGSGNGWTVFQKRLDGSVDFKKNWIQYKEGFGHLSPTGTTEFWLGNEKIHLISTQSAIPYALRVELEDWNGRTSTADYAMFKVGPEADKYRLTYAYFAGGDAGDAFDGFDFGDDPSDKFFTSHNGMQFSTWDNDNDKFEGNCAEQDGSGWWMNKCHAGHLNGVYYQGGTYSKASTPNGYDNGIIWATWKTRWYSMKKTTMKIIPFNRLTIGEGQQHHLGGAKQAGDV

## GEGQQHHLGGAKQAGAV [γ^1–17 D16A]
[1]
  Kd: 3 µM

## Fg γ^1–17 peptide, wild type (Fg γ-chain 395–411) (from UniProt P02679-2 421-437)
[2]
  Kd: 5.8 µM

## GEGQQHHLGGAKQAGDV [WT γ^1–17]
[3]
  inhibition at 50 µM: ~50%
[1]
  Kd: 5.8 µM

## ClfA_(229–545) (clumping factor A, N2N3 domains) (from UniProt Q53653 229-545) (domain or fragment)
[4]
  Kd: 0.657 µM
[5]
  Kd: 0.222 µM

## ClfA_((229–545)D327C/K541C), stable closed conformation (from UniProt Q53653 229-545) (domain or fragment)
[5]
  Kd: 0.02 µM
[6]
  Kd: 0.034 µM

## GST-Fg γ^1–17: recombinant form of residues 395–411 of the Fg γ-chain fused to a GST protein (GEGQQHHLGGAKQAGDV; also: fused to GST, end not given here)
[7]
  Kd: 0.657 µM

## GQQHHLGGAKQAGAV [Fg γ^1–17 _(D16A) peptide truncated by 2 amino acids at the N-terminus]
[8]
  Kd: 8.8 µM

## HLGGAKQAGAV [Fg γ^1–17 _(D16A) peptide truncated by 6 amino acids at the N-terminus]
[8]
  Kd: 22.5 µM

## QHHLGGAKQAGAV [Fg γ^5–17 _(D16A) peptide (13 residues)]
[8]
  Kd: 10.5 µM
